Laboratory results: patent US20200262927A1 (OXFORD BIOTHERAPEUTICS, published 2020)

T1: human CRTAM on in vitro activated human T cells (human, UniProt O95727 18-393)
T1 sequence: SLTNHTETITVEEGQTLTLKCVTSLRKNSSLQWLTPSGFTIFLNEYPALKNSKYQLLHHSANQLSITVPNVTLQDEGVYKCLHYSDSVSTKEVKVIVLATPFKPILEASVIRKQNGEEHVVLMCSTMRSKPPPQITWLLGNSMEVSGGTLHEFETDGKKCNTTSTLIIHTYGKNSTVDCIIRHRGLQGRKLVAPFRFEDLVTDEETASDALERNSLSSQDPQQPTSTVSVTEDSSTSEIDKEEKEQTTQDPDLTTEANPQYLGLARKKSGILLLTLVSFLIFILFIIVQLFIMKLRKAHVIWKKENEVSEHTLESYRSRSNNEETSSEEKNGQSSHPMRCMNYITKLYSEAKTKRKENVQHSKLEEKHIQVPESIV


Legend:
[1] = target: human CRTAM on in vitro activated human T cells (human) (UniProt O95727); assay: flow cytometry on in vitro activated human T cells, MFI against antibody concentration
[2] = target: T1, human CRTAM on in vitro activated human …; assay: flow cytometry on in vitro activated human T cells, goat anti-rat IgG-RPE detection, MFI against antibody concentration
Description: Following this the cells were cultured with anti-CD3/anti-CD28 activation beads (Cat #11132D, Thermo Fisher, Waltham, Mass.) for 24 hours before FACS analysis (data not shown).
Fluorescence-activated cell sorting (FACS) analysis was performed in 96-well plate format according to standard protocols. Activated T cells were prepared as above. All subsequent steps of the staining protocol were carried out on ice with ice-cold reagents except for the centrifugation steps which was done at RT. Three-fold serial dilutions of the antibodies, were prepared in FACS buffer to give a 12-point titration curve with final concentrations ranging from 133 nM to 1 pM. The corresponding hybridoma supernatants, isotype controls, and positive control antibodies were diluted in ice cold FACS buffer to be tested at a single point with a final concentration of 30 nM. The antibody dilutions were each dispensed (100 μL/well) into one well for each cell line. […] The final cell pellets were re-suspended in […]+50 μl of 4% paraformaldehyde and fixed until ready to be acquired in a Flow cytometer. […] Geometric mean fluorescence intensity (GMFI or Geo Mean) of each sample was determined using a Guava Easycyte Plus high-throughput flow cytometer (96 well plates) and raw data were analyzed using the Guava Cytosoft Pro Software Module, version 2.2.2 (Millipore, Billerica Mass.). […]

EC50 (read off the curve) [1] [µg/mL]	EC50 (read off the curve) [2] [µg/mL]	Molecule
2	–	commercially available anti-CRTAM antibody CR24.1 (BioLegend)
–	~0.02	5A11 parental rat monoclonal anti-CRTAM antibody (antibody, V domains shown, Rat monoclonal from a hybridoma, detected with goat anti-rat IgG; also called antibody 5A11; BUH-5A11-F2) VH: AVQLVESGGGLVQPKESLKISCAASGFTFSDAAMYWVRQAPGKGLEWVARIRTKTNNYAAHYVESVKGRFTVSRDDSKSMVYLQMDNLKTDDTAMYYCTSVPQGTQDYWGQGVMVTVSS VL: SYELIQPPSASVTLGNTVSLTCVGDELSKRYVQWSQQKPDKTIVSVIYKDSERPSGISDRFSGSSSGTTATLTIHGTLAEDEADYYCLSTYSDDNLPVFGGGTKLTVL
